Laboratory results published in patent US20250171562A1.
Each block holds one binder with its values, some of them ahead of it.

What was measured:
[1] = target: IgE on basophils of allergic donors (human) (UniProt P01854); assay: IgE surface stain on donor basophils, flow cytometry
[2] = target: IgE on basophils of allergic donors (human) (UniProt P01854); assay: cell-based or functional assay
[3] = target: IgE on basophils of allergic donors (human) (UniProt P01854); assay: IgE surface stain on donor basophils after 1 µM sdAb, flow cytometry
[4] = target: mixture of three Der p 2 specific recombinant human IgE clones H10, H12, P4E (human) (UniProt P01854); assay: RBL-SX38 IgE displacement, FACS
Chain of mixture of three Der p 2 specific recombinant human IgE clones H10, H12, P4E (human) (P01854 other isoform, or with tags, fused parts or gaps): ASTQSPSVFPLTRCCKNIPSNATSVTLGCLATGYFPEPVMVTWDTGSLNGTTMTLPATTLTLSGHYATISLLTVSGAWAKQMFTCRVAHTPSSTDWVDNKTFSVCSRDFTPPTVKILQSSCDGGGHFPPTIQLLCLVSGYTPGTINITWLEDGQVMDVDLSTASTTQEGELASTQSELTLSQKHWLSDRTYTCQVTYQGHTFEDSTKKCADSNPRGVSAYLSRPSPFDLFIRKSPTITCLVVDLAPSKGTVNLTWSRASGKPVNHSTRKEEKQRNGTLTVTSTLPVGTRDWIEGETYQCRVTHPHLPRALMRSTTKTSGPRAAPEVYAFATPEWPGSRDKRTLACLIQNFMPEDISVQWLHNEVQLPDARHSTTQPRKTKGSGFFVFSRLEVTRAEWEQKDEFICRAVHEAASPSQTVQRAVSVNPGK

Chain of IgE on basophils of allergic donors (human) (P01854 1-428): as the sequence (P01854 other isoform, or with tags, fused parts or gaps) above, with K428L counted along it

displacement effect on IgE surface expression [1]: 70%
B1: A2+B3 (protein)
VHH 1: EVQLLESGGGLVQPGGSLRLSCAASGFRFGNYDMAWVRQAPGKRYEWVSSIDTGGDITHYADSVKGRFTISRDNAKNTLYLQMNSLRPEDTAEYWCATDEEYALGPNEFDYYGQGTLVTVS
VHH 2: DVQLQESGGGLVQAGGSLRLSCAASGFIFRLAGMSWVRQAPGKGFEWVSGITMDGSTTNYADSVKGRFTISRDNSKNRLYLQMNSLKPEDTAVYYCARGAKGGYNDPRGQGTQVTVS

displacement effect on IgE surface expression [1]: 70%
B2: sdAb A2 (VHH)
VHH: B1 VHH 1

fold decrease in rDerp2-induced activation of basophils of a HDM allergic donor (% CD63 pos basophils) [2]: 10 fold | displacement effect measured by IgE expression [3]: 16% | Max effect/effect 1 µM [4]: 40%
B3: sdAb A1 (VHH)
VHH: EVQLLESGGGLVQPGGSLRLSCAASGFTFGNYDMAWVRQAPGKRPEWVSSIDTGGDITHYADSVKGRFTISRDNAKNTLYLQMNSLRPEDTAVYWCATDEEYALGPNEFDYYGQGTLVTVSS
